Measurements taken from the RNAGym collection of RNA variant scans (doi:10.7554/elife.80360).

B1: HDV Ribozyme (parent)
chain: GGCCGGCAUGGUCCCAGCCUCCUCGCUGGCGCCGGCUGGGCAACAUUCCGAGGGGACCGUCCCCUCGGUAAUGGCGAAUGGGACCCA

Variants of: B1
Assay: self-cleavage, relative activity (ratio to wild type); higher = more cleavage; co-transcriptional

Variant | self-cleavage
G1A G53U | 0.0386
G52A C84A | 0.736
U47G G74U | 0.434
C3A C75G | 0.0308
G28U G38U | 0.14
C13U A83U | 0.185
U9C U20G | 0.443
G11U C48A | 0.423
U23A C36U | 0.671
C49G C57G | 0.997
U37C A83G | 0.76
C3G A51U | 0.768
U27G U79A | 0.462
A16U C64U | 0.866
G6A C41G | 0.107
G50U A87C | 0.935
G25A G67A | 0.299
C22U G52A | 0.709
C18U G29U | 0.0639
G76A C86A | 0.855
U27G C75A | 0.0755
C22G C26G | 0
G6A U47A | 0.35
G35U A51G | 0.356

Variant | self-cleavage
A16U G74U | 0.394
G54U G67A | 1.01
C32U C36U | 0.493
G6U G17A | 0.19
G10C U12A | 0.123
G25A C86G | 0.122
G52U G82C | 0.194
C7U G50U | 0.864
C26U C62A | 1.08
G17U G54U | 0.546
A42U C84A | 0.655
U9A G10A | 1.03
C57U G76U | 0.906
C36G G38A | 0.143
G11C A87U | 0.453
G11U G35U | 0.115
G25A G53A | 0.245
G1A G40A | 0.119
C13G A70U | 0.123
G17A A78U | 0.242
G55A G80U | 0.13
U12C | 0.399
U37A C44A | 0.364
G34C U46A | 0.158

Variant | self-cleavage
G25A A83U | 0.0678
U27A U47A | 0.7
C26A A71C | 1.07
U23C G35A | 0.655
U9C A77U | 0.867
C3A C66U | 0.549
A51C G59A | 0.92
G1C G55C | 0.214
G11A A70U | 0.246
C57A C66U | 1.18
G68A U79A | 0.554
A8C C19A | 0.0449
G1A A71C | 0.145
C21G G52A | 0.0287
C63G C84G | 0.306
G6C C49U | 0.489
C44G U69C | 0.776
U65A C85A | 0.858
C4A C66G | 0.289
C32U C49G | 0.743
U20A U46G | 0.166
C48G C66U | 0.868
A16U A87G | 0.968
U12A C58A | 0.312

Variant | self-cleavage
A43C G67U | 0.299
U9C G55C | 0.703
C13U G82A | 0.997
C36G A70G | 0.147
C36A G55C | 0.196
G1A G39U | 0.135
C33A G67C | 0.277
G1C G35U | 0.155
A51C A77G | 0.643
G53C G80A | 0.307
C36G C61U | 0.121
U46C G68U | 0.719
C24U G52U | 0.694
C14U A51G | 0.898
A16G A77C | 0
A8G A83U | 0.246
C63G U79C | 0.697
C3U A42U | 0.339
C41A C44G | 0.323
G29A G50C | 0.121
C22U C26A | 0.997
A8U A51U | 0.787
G34U U46C | 0.161
U23C C57A | 0.849

Variant | self-cleavage
C3U U47C | 0.564
G55C C62G | 1.06
C49A A87G | 0.839
U27A U60A | 0.918
G10A C63A | 0.76
C48U G59C | 1.23
C57U A77U | 0.648
G40U G81U | 0.0989
A8G A87G | 0.942
G1C G38A | 0
G31A U69A | 0.564
C21G C30G | 0
G6A G81C | 0.0378
C85G | 0.948
G55C C64A | 0.855
C4U C7U | 0.457
G10U U20C | 0
U47A G54C | 1.01
G11C C30G | 0
C3G G55C | 0.682
G35U G81U | 0.156
C58A C64G | 1.06
C18U A56U | 0.745
C13U G55U | 0.598

Variant | self-cleavage
G1A C64G | 0.095
G10U C33U | 0.466
G39C G76U | 0.831
C33U G34U | 0.219
C57A G74C | 0.108
U47A G81C | 0.161
C33G A83C | 0.252
C33A G40C | 0.217
G11U C41U | 0.358
U23G G55C | 0.748
U65G A87C | 0.859
G1A C58U | 0.158
G17A C44A | 0.306
U60C A70U | 1.15
C24U C33A | 0.0845
C30G C36A | 0.0554
G53A C84A | 0.888
C4U C26A | 0.773
G28U G29U | 0.107
G29U A43U | 0.095
A16C C19U | 0.266
U46C C58G | 0.582
G5A A70U | 0.19
G5C G74U | 0.161

Variant | self-cleavage
A45G A71C | 1.01
U37G A42C | 0.308
U9G U47G | 1.21
G39U G53U | 0.587
A8G U69A | 0.942
C14A C86U | 0.9
C3G C49G | 0.523
C26G A45C | 0.364
C49G C61G | 0.618
U46C A78G | 0.554
G53A G74A | 0.554
C22U U72A | 0.219
C19A U20A | 0.0234
U9A A83C | 0.731
A42G G59A | 0.831
A77G C84G | 0.573
C58U A71C | 0.85
G10U U47G | 0.63
G17U G28A | 0.188
U23G A78U | 0.0875
G10C G17A | 0.804
G25U U69A | 0.196
G25U U69C | 0.229
